Among the data in patent US20260297135 (published 2026) are Kd, binding result and IC50 values, retold here.

Numbering of substitutions follows the chain as printed.

As usually defined, the Kd is the equilibrium constant for the complex coming apart. High values mean a looser complex, low ones a tighter complex. Broadly, the IC50 is the concentration needed to halve the response being measured. A low value points to inhibition by little substance.

For assay [1], the target named is T1, integrin αvβ8 (human, UniProt P06756).
T1 chain 1: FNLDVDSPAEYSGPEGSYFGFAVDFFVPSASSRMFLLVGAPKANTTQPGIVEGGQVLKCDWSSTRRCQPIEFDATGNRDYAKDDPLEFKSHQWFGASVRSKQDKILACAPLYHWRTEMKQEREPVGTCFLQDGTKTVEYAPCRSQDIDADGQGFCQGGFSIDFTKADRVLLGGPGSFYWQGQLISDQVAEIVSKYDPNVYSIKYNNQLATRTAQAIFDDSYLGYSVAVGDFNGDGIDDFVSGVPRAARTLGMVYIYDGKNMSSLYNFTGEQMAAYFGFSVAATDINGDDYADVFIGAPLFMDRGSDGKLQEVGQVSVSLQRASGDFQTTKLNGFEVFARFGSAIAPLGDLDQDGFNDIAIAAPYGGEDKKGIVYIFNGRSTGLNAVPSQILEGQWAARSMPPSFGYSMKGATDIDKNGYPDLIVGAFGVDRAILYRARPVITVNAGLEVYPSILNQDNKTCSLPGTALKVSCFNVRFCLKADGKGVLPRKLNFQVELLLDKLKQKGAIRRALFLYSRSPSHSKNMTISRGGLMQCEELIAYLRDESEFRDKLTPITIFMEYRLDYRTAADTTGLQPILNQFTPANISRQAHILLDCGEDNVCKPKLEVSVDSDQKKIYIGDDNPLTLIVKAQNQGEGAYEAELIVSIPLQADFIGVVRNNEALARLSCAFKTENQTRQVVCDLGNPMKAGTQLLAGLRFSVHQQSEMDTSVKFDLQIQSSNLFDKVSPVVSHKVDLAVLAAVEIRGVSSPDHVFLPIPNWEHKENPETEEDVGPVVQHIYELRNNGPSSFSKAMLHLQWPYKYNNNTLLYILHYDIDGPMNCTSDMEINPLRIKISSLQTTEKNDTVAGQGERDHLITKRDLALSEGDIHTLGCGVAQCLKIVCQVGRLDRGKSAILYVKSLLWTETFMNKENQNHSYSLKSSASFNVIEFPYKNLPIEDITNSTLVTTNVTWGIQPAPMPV
T1 chain 2: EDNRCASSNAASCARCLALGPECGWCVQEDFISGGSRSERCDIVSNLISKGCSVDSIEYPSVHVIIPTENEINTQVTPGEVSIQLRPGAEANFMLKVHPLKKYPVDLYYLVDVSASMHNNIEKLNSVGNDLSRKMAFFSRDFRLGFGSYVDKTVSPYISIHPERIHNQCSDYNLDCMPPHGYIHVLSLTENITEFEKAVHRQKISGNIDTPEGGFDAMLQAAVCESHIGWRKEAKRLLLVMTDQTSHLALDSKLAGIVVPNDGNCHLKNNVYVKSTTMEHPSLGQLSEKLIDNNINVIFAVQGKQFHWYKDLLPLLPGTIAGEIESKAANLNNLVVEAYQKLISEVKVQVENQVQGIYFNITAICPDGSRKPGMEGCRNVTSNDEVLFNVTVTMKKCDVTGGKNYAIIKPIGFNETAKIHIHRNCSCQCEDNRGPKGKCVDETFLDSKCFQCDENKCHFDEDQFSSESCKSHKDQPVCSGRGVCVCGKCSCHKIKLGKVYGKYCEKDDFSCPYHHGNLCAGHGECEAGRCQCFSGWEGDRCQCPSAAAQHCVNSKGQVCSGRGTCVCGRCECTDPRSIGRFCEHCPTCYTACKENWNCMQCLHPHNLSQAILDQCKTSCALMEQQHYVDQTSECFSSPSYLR
Briefly: BLI.

The target in assay [2] is T2, integrin αvβ6 (human, UniProt P06756).
T2 chain 1: T1 chain 1
T2 chain 2: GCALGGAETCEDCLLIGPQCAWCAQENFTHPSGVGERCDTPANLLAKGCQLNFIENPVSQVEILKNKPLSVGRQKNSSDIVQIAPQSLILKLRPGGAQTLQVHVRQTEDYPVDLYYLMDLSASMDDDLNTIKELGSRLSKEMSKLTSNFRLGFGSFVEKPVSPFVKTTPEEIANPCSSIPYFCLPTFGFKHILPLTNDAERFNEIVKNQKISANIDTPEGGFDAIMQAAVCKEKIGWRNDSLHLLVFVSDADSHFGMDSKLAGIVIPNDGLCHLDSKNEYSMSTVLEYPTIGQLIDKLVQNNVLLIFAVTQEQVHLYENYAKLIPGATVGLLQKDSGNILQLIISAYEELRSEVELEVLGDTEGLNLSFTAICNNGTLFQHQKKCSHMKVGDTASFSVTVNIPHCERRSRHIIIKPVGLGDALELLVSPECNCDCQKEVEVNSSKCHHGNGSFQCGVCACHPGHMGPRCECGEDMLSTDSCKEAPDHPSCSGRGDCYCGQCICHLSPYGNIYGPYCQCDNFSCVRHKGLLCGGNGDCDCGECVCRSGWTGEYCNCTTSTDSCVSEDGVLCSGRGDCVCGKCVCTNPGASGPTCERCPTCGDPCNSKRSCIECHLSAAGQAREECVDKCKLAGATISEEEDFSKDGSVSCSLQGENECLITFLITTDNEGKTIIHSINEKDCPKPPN
Nature of the assay: BLI, at 500 nM. A general note: BLI is a label-free optical method that tracks binding on a fibre tip over time.

In assay [3] the target is T2, integrin αvβ6. Briefly: BLI.
The target in assay [4] is T2, integrin αvβ6. Nature of the assay: competition, hLAP1.
Assay [5] concerns the target T1, integrin αvβ8. Briefly: competition, hLAP1.

B1: B8_BP-LATY (avb8_3_LATY) (designed binder)
chain: TKCVVRFNFRGDLATYALKAVKDHLKKEGPHWNITTHNDDEVYLVVRGIHESDAKRIAKWVESTIPGISVETQCD
As to B1, the Kd with integrin αvβ8 [1] worked out at 0.5 nM. Further, the binding result with integrin αvβ6 [2] was “no binding”.

B2: avb8_12 (LATI) (designed binder)
chain: B1 chain with Y16I
B2 gave a Kd with integrin αvβ6 [3] of 1.13 nM.

B3: B8_BP_dslf (avb8_3) (designed binder)
chain: B1 chain with L13M, T15V
With B3, in the assay with integrin αvβ8 [1], the Kd turned out to be 1.9 nM. Moreover, the binding result with integrin αvβ6 [4] is “no binding”. Besides, in the assay with integrin αvβ8 [5], the IC50 was determined as 2.68 nM.
